Data reported in patent US20250215467A1, “L-THREONINE TRANSALDOLASES AND USES THEREOF” (University of Delaware, priority 2022, published 2025).

Experiments:
wild-type E. coli MG1655 = assay: β-OH-nsAA biosynthesis during aerobic fermentation in wild-type E. coli MG1655; format: cell-based, Escherichia coli; conditions: SUMO-tagged construct, 1 mM 3, 20 h
Experimental: Metabolites of interest were quantified via high-performance liquid chromatography (HPLC) using an Agilent 1260 Infinity model equipped with a Zorbax Eclipse Plus-C18 column. To quantify aldehyde and β-OH-nsAAs, an initial mobile phase of solvent A/B=95/5 was used (solvent A, water+0.1% TFA; solvent B, acetonitrile+0.1% TFA) and maintained for 5 min. A gradient elution was performed (A/B) as follows: gradient from 95/5 to 50/50 for 5-12 min, gradient from 50/50 to 0/100 for 12-13 min, and gradient from 0/100 to 95/5 for 13-14 min. A flow rate of 1 mL min-1 was maintained, and absorption was monitored at 210, 250 and 280 nm.
For screening TTA activity in aerobically growing cells, we inoculated strains transformed with plasmids expressing TTAs into 300 μL volumes of MOPS EZ Rich media in a 96-deep-well plate with appropriate antibiotic added to maintain plasmids (50 μg/mL kanamycin (Kan)). Cultures were incubated at 37° C. with shaking at 1000 RPM and an orbital radius of 1.25 mm until an OD600 of 0.5-0.8 was reached. OD600 was measured using a SPECTRAMAX® i3× plate reader. At this point, the TTAs were induced with addition of 0.2 nM aTc for TTA expression. Then, 2 h following induction of the TTAs, 1 mM aldehyde was added to the culture. Cultures were then incubated over 20 h at 30° C. with metabolite concentration measured via supernatant sampling and submission to HPLC. […]

E. coli RARE strain = assay: CAR-TTA coupled production in aerobically growing E. coli RARE; format: cell-based, Escherichia coli; conditions: coupled to NiCAR, 2 mM acid, HPLC after 20 h
Experimental: For the CAR-TTA coupled assay, the strains transformed with a plasmid expressing a TTA and a second plasmid expressing a CAR were grown under identical conditions with the addition of 34 μg/mL chloramphenicol (Cm) to maintain the additional plasmid. Further, 0.2 nM aTc and 1 mM IPTG were added to induce protein expression and 2 mM aldehyde, or acid was added at the time of induction. Following induction, the cultures were grown for 20 h at 30° C. while shaking at 1000 RPM with product concentrations measured via supernatant sampling and submission to HPLC.
Finally, to partially address the toxicity of supplemented aldehydes in fermentative contexts, we investigated whether we could couple a TTA to a carboxylic acid reductase (CAR) to create a steady and low-level supply of aldehydes biosynthesized from carboxylic acid precursors. […]
With the promise of the CAR-TTA coupling, we wanted to investigate the generalizability of this pathway to produce a β-OH-nsAA that has a bio-orthogonal conjugation handle. […] Finally, given the potential to produce novel peptide or protein products in cells, we wanted to confirm the activity of this cascade in growing cells, which was successful for all CAR-TTA pairings with MavCAR producing the highest titer determined by product peak area after 20 h (FIG. 20d). […]

B1: PbTTA: L-threonine transaldolase, SEQ ID NO: 16, Parachlamydiales bacterium, MBN2478762.1 (protein, listed as Parachlamydiales bacterium)
chain: METSLKDFETILHLINKEEIDSNDTIHMTANENIMSKLSKHYLKSTLSYRYHVGMFDDQKNLTVSRSCLIKNSLMLRCLSPIFLLEQQAREYVKKMFFAEYADFRPLSGMHTVFCILSTLTKPNDRVYVFTTESVGHAATVSLLKSLGRKVSFIPFCEKKLDIDLEKLSKQILIEKPNAILFDFGTPFYPLPIREIREIVGNDVKMIYDASHVLGLIAGGQFQNPLLEGCDVLIGNTHKTFPGPQKGMILYKNKSLGKEIATEIFKSAISAQHTHHAIALYVTIIEMYIHGKEYANQIIKNNHALSQALINEGFKIFKRKNQFSLSHMIAITGDFPIDHHVACADLHNSNISTNSRILYDFPAVRIGVQEVTRKGMKEKDMVQLAKFFKEIILDRKNISSKIKEFNNKFNSIEYSLDEIYEKLF
β-OH-nsAA titer (wild-type E. coli MG1655; MG1655, 100 mM L-Thr supplemented): 0.47 ± 0.04 mM
β-OH-nsAA titer (wild-type E. coli MG1655; MG1655, physiological levels of L-Thr): 0.09 ± 0.01 mM
β-OH-nsAA production from 4-formyl benzoic acid (E. coli RARE strain): observed a peak corresponding to the β-OH-nsAA
